Measurements reported in article PMC4895972, “Calcium binding protects E-cadherin from cleavage by Helicobacter pylori HtrA” (Gut Pathogens, 2016).

Molecular target: the molecule itself
Test: non-reducing SDS-PAGE; 3 µg HpHtrA preincubated in 50 mM HEPES pH 7.5 without or with increasing concentrations of CaCl2; sample buffer without β-mercaptoethanol; Coomassie-stained

B1: recombinant HtrA (high temperature requirement A) from H. pylori strain 26695, wildtype (enzyme)
chain: GNIQIQSMPKVKERVSVPSKDDTIYSYHDSIKDSIKAVVNISTEKKIKNNFIGGGVFNDPFFQQFFGDLGGMIPKERMERALGSGVIISKDGYIVTNNHVIDGADKIKVTIPGSNKEYSATLVGTDSESDLAVIRITKDNLPTIKFSDSNDISVGDLVFAIGNPFGVGESVTQGIVSALNKSGIGINSYENFIQTDASINPGNSGGALIDSRGGLVGINTAIISKTGGNHGIGFAIPSNMVKDTVTQLIKTGKIERGYLGVGLQDLSGDLQNSYDNKEGAVVISVEKDSPAKKAGILVWDLITEVNGKKVKNTNELRNLIGSMLPNQRVTLKVIRDKKERAFTLTLAERKNPNKKETISAQNGAQGQLNGLQVEDLTQETKRSMRLSDDVQGVLVSQVNENSPAEQAGFRQGNIITKIEEVEVKSVADFNHALEKYKGKPKRFLVLDLNQGYRIILVK
notes: also called HpHtrA; H. pylori HtrA; source: E. coli BL21, purified (GSH-Sepharose, GST-tag removed with PreScission protease, dialyzed against 50 mM Tris pH 7.5)
- binding result: binds
